Tests used:
[1] = biological target: T1, LRH-1 (hLRH-1, NR5A2) (Homo sapiens, UniProt O00482 O00482:1-541); assay: EMSA; no complex; settings: tags: none stated; TNT-T7 rabbit reticulocyte lysate, vector pCI-hLRH-1; label: 32P
Protocol: (§1) 2 μl of rabbit reticulocyte lysate programmed by hLRH-1 were incubated for 15 minutes at room temperature in a final volume of 20 μl of buffer containing 10 mM HEPES, 2.5 mM MgCl₂, 10% glycerol, 2.5 mg/ml BSA, 50 mM NaCl and 0.5 mM DTT with 2.5 μg of polydl-dC and 1 μg of herring sperm DNA in the presence of the labelled double-stranded oligonucleotides (0.5 ng). The complexes were then separated by non-denaturing gel electrophoresis in TBE 0.25X buffer.
(§2) In contrast, no complex was detected in the presence of labelled double-stranded oligonucleotide corresponding to the mutated response element (hCyp7a mut). […] On the other hand, a specific LRH-1/DNA complex formed with a labelled double-stranded oligonucleotide corresponding to fragment −144/−122 (LRHRE_ApoA1_h_{—}7) of the human apo AI gene promoter. Said fragment straddles regions B and C of the human apo AI promoter and contains, on the antisense strand, the sequence TCAAGGATC similar to the consensus sequence TCAAGGTCA of an LRH-1 response element.

[2] = biological target: T2, FXR (UniProt Q96RI1 Q96RI1:1-486); assay: EMSA; specific complex; settings: tags: none stated; TNT-T7 rabbit reticulocyte lysate, vector pCDNA3-FXR; label: 32P
T2 sequence: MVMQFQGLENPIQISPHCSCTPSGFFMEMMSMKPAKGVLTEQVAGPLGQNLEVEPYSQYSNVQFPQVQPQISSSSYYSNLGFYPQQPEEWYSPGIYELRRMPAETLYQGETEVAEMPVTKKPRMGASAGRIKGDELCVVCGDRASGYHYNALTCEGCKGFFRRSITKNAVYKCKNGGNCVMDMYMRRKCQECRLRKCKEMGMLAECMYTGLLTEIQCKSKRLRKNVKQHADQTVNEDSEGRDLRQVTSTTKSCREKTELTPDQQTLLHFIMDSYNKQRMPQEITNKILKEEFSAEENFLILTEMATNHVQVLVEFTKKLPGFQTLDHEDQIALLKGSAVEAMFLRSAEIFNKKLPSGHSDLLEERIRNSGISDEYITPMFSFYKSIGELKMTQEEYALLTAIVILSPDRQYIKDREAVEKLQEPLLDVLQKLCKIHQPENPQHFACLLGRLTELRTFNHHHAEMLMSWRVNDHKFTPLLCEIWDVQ

[3] = biological target: T1, LRH-1 (hLRH-1, NR5A2); assay: EMSA; specific complex; settings: tags: none stated; TNT-T7 rabbit reticulocyte lysate, vector pCI-hLRH-1; label: 32P
[4] = biological target: T2, FXR; assay: EMSA; no complex; settings: tags: none stated; TNT-T7 rabbit reticulocyte lysate, vector pCDNA3-FXR; label: 32P
[5] = biological target: T1, LRH-1 (hLRH-1, NR5A2); assay: EMSA; specific complex; low affinity site, as competitor only partially displaces Cyp7a probe (FIG. 4A); settings: tags: none stated; TNT-T7 rabbit reticulocyte lysate, vector pCI-hLRH-1; label: 32P
Protocol: as §1, §2

[6] = biological target: T1, LRH-1 (hLRH-1, NR5A2); assay: EMSA; no complex; no displacement as competitor (FIG. 4A); settings: tags: none stated; TNT-T7 rabbit reticulocyte lysate, vector pCI-hLRH-1; label: 32P
Protocol: as §1, §2

[7] = biological target: T1, LRH-1 (hLRH-1, NR5A2); assay: EMSA; no complex; also no displacement as competitor (FIG. 4B); settings: tags: none stated; TNT-T7 rabbit reticulocyte lysate, vector pCI-hLRH-1; label: 32P
Protocol: as §1, §2

[8] = biological target: T1, LRH-1 (hLRH-1, NR5A2); assay: EMSA; 2.5 mM MgCl2, 50 mM NaCl, room temperature; higher affinity than apo AI -144/-122 by competition (Example 4); settings: tags: none stated; TNT-T7 rabbit reticulocyte lysate, vector pCI-hLRH-1; label: 32P
Protocol: as §1, §2

[9] = biological target: T2, FXR; assay: EMSA; complex lost; settings: tags: none stated; TNT-T7 rabbit reticulocyte lysate, vector pCDNA3-FXR; label: 32P
[10] = biological target: T1, LRH-1 (hLRH-1, NR5A2); assay: EMSA; FXR site mutation does not affect LRH-1 binding; settings: tags: none stated; TNT-T7 rabbit reticulocyte lysate, vector pCI-hLRH-1; label: 32P

T1 sequence (O00482 whole entry, one chain of several): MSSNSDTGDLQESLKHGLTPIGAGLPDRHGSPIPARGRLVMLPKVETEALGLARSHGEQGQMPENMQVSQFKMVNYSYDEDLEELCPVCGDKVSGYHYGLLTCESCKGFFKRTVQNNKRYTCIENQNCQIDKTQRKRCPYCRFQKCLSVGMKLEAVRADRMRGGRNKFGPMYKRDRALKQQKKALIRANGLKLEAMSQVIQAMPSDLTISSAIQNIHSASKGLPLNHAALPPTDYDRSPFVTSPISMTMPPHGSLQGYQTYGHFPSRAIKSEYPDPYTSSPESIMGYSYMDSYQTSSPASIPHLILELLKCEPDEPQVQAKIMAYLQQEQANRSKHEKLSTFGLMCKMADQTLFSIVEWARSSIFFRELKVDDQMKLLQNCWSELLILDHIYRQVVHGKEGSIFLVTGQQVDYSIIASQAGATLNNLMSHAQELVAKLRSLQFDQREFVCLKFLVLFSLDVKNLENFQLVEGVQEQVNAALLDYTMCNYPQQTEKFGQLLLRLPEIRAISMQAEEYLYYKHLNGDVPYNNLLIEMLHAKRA

B1: LRHRE_ApoA1_h_8 (-180/-158) (dsDNA)
DNA 1: GATCCAGCTTGCTGTTTGCCCACTCTATA
DNA 2: GATCTATAGAGTGGGCAAACAGCAAGCTG
B1: no binding [1].

B2: FXRRE_ApoA1_h_1 (dsDNA)
DNA 1: CAGAGCTGATCCTTGAACTCTTAAGTT
DNA 2: AACTTAAGAGTTCAAGGATCAGCTCTG
B2: binds [2]; binds [3].

B3: LRHRE_ApoA1_h_7 (-144/-122) (dsDNA)
DNA 1: GATCCGGGACAGAGCTGATCCTTGAACTA
DNA 2: GATCTAGTTCAAGGATCAGCTCTGTCCCG
B3: no binding [4]; binds [5].

B4: LRHRE_ApoA1 mut (dsDNA)
DNA 1: GATCCGGGACAGAGCTGATTGTTGAACTA
DNA 2: GATCTAGTTCAACAATCAGCTCTGTCCCG
B4: no binding [4]; no binding [6].

B5: hCyp7a mut (dsDNA)
DNA 1: GATCTCTTAGTTCAATTCCAGTTAG
DNA 2: GATCCTAACTGGAATTGAACTAAGA
B5: no binding [7].

B6: hCyp7a wt (dsDNA)
DNA 1: GATCTCTTAGTTCAAGGCCAGTTAG
DNA 2: GATCCTAACTGGCCTTGAACTAAGA
B6: binds [8].

B7: FXRRE_ApoA1_h_1_mut (dsDNA)
DNA 1: CAGAGCTGATCCTTGAAGTGTTAAGTT
DNA 2: AACTTAACACTTCAAGGATCAGCTCTG
B7: no binding [9]; binds [10].

B8: LRHRE_ApoA1_h_6 (-178/-145) (dsDNA)
DNA 1: GATCCTTGCCCACTCTATTTGCCCAGCCCCAA
DNA 2: GATCTTGGGGCTGGGCAAATAGAGTGGGCAAG
B8: no binding [1].

B9: LRHRE_ApoA1_h_5 (-191/-171) (dsDNA)
DNA 1: GATCCGCAGCCCCCGCAGCTTGCTGTA
DNA 2: GATCTACAGCAAGCTGCGGGGGCTGCG
B9: no binding [1].
